# Columns and labels:
# [1] = tested on: HeLa Kyoto; assay: solubility in G1/S (NP-40 vs SDS abundance) (log2 ratio); higher = more soluble; details: cell cycle stage: G1/S
# [2] = tested on: HeLa Kyoto; assay: melting temperature (median over replicates), in situ; higher = more thermally stable
# [3] = tested on: HeLa Kyoto; assay: solubility change mitosis vs G1/S (difference of NP-40 vs SDS log2 ratios) (log2 ratio difference); higher = more soluble in mitosis
# [4] = tested on: HeLa Kyoto; assay: thermal stability score vs G1/S (z-score of summed log2 fold changes over temperatures); higher = more thermally stable than in G1/S
# [5] = cell cycle stage: early G1 (4.5 h after nocodazole release)
# 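Wherever melting temperature (median over replicates), in situ is given: HeLa Kyoto cells synchronized by double thymidine or nocodazole block, proteins quantified by TMT10plex mass spectrometry, three independent biological replicates.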
# 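Wherever solubility change mitosis vs G1/S (difference of NP-40 vs SDS log2 ratios) is given: synchronized HeLa Kyoto cells (double thymidine block for G1/S, nocodazole release for mitosis), protein amounts in NP-40 versus SDS lysates quantified by mass spectrometry, three biological replicates.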
# 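Wherever solubility in G1/S (NP-40 vs SDS abundance) is given: HeLa Kyoto cells arrested at G1/S by double thymidine block, proteins quantified by TMT10plex mass spectrometry in mild NP-40 versus SDS extracts, three biological replicates.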
# 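Wherever thermal stability score vs G1/S (z-score of summed log2 fold changes over temperatures) is given: synchronized HeLa Kyoto cells, proteins quantified by TMT10plex mass spectrometry, three biological replicates, mitosis taken 0.5 h after nocodazole release, G1/S directly after double thymidine block.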
Substance,solubility in G1/S (log2) [1],melting temperature ([2]; cell cycle stage: G1/S) [°C],melting temperature ([2]; cell cycle stage: mitosis) [°C],solubility change mitosis (log2) [3],"thermal stability score [4, 5]",thermal stability score ([4]; cell cycle stage: mitosis)
MAEVGEDSGARALLALRSAPCSPVLCAAAAAAAFPAAAPPPAPAQPQPPPGPPPPPPPPLPPGAIAGAGSSGGSSGVSGDSAVAGAAPALVAAAAASVRQSPGPALARLEGREFEFLMRQPSVTIGRNSSQGSVDLSMGLSSFISRRHLQLSFQEPHFYLRCLGKNGVFVDGAFQRRGAPALQLPKQCTFRFPSTAIKIQFTSLYHKEEAPASPLRPLYPQISPLKIHIPEPDLRSMVSPVPSPTGTISVPNSCPASPRGAGSSSYRFVQNVTSDLQLAAEFAAKAASEQQADTSGGDSPKDESKPPFSYAQLIVQAISSAQDRQLTLSGIYAHITKHYPYYRTADKGWQNSIRHNLSLNRYFIKVPRSQEEPGKGSFWRIDPASEAKLVEQAFRKRRQRGVSCFRTPFGPLSSRSAPASPTHPGLMSPRSGGLQTPECLSREGSPIPHDPEFGSKLASVPEYRYSQSAPGSPVSAQPVIMAVPPRPSSLVAKPVAYMPASIVTSQQPAGHAIHVVQQAPTVTMVRVVTTSANSANGYILTSQGAAGGSHDAAGAAVLDLGSEARGLEEKPTIAFATIPAAGGVIQTVASQMAPGVPGHTVTILQPATPVTLGQHHLPVRAVTQNGKHAVPTNSLAGNAYALTSPLQLLATQASSSAPVVVTRVCEVGPKEPAAAVAATATTTPATATTASASASSTGEPEVKRSRVEEPSGAVTTPAGVIAAAGPQGPGTGE [FOXK1],0.588,49.1,51,-0.0982,2.52,2.09
EP300,-0.0947,50.8,51.6,-0.0909,-0.227,1.93
MAMGLFRVCLVVVTAIINHPLLFPRENATVPENEEEIIRKMQAHQEKLQLEQLRLEEEVARLAAEKEALEQVAEEGRQQNETRVAWDLWSTLCMILFLMIEVWRQDHQEGPSPECLGGEEDELPGLGGAPLQGLTLPNKATLGHFYERCIRGATADAARTREFLEGFVDDLLEALRSLCNRDTDMEVEDFIGVDSMYENWQVDRPLLCHLFVPFTPPEPYRFHPELWCSGRSVPLDRQGYGQIKVVRADGDTLSCICGKTKLGEDMLCLLHGRNSMAPPCGDMENLLCATDSLYLDTMQVMKWFQTALTRAWKGIAHKYEFDLAFGQLDSPGSLKIKFRSGKFMPFNLIPVIQCDDSDLYFVSHLPREPSEGTPASSTDWLLSFAVYERHFLRTTLKALPEGACHLSCLQIASFLLSKQSRLTGPSGLSSYHLKTALLHLLLLRQAADWKAGQLDARLHELLCFLEKSLLQKKLHHFFIGNRKVPEAMGLPEAVLRAEPLNLFRPFVLQRSLYRKTLDSFYEMLKNAPALISEYSLHVPSDQPTPKS [ITPRIP],0.169,52,–,-0.1,-0.0632,-0.00908
MWSGRKLGSSGGWFLRVLGPGGCNTKAARPLISSAVYVKNQLSGTLQIKPGVFNEYRTIWFKSYRTIFSCLNRIKSFRYPWARLYSTSQTTVDSGEVKTFLALAHKWWDEQGVYAPLHSMNDLRVPFIRDNLLKTIPNHQPGKPLLGMKILDVGCGGGLLTEPLGRLGASVIGIDPVDENIKTAQCHKSFDPVLDKRIEYRVCSLEEIVEETAETFDAVVASEVVEHVIDLETFLQCCCQVLKPGGSLFITTINKTQLSYALGIVFSEQIASIVPKGTHTWEKFVSPETLESILESNGLSVQTVVGMLYNPFSGYWHWSENTSLNYAAYAVKSRVQEHPASAEFVLKGETEELQANACTNPAVHEKLKK [COQ3],0.345,55.3,56.3,-0.0133,-0.812,-0.988
MSSARFDSSDRSAWYMGPVSRQEAQTRLQGQRHGMFLVRDSSTCPGDYVLSVSENSRVSHYIINSLPNRRFKIGDQEFDHLPALLEFYKIHYLDTTTLIEPAPRYPSPPMGSVSAPNLPTAEDNLEYVRTLYDFPGNDAEDLPFKKGEILVIIEKPEEQWWSARNKDGRVGMIPVPYVEKLVRSSPHGKHGNRNSNSYGIPEPAHAYAQPQTTTPLPAVSGSPGAAITPLPSTQNGPVFAKAIQKRVPCAYDKTALALEVGDIVKVTRMNINGQWEGEVNGRKGLFPFTHVKIFDPQNPDENE [CRKL],0.543,53,53.4,0.0605,-0.327,-0.418
MTCWLRGVTATFGRPAEWPGYLSHLCGRSAAMDLGPMRKSYRGDREAFEETHLTSLDPVKQFAAWFEEAVQCPDIGEANAMCLATCTRDGKPSARMLLLKGFGKDGFRFFTNFESRKGKELDSNPFASLVFYWEPLNRQVRVEGPVKKLPEEEAECYFHSRPKSSQIGAVVSHQSSVIPDREYLRKKNEELEQLYQDQEVPKPKSWGGYVLYPQVMEFWQGQTNRLHDRIVFRRGLPTGDSPLGPMTHRGEEDWLYERLAP [PNPO],0.682,53.5,54.3,-0.0358,-1.68,-1.82
MCGNNMSTPLPAIVPAARKATAAVIFLHGLGDTGHGWAEAFAGIRSSHIKYICPHAPVRPVTLNMNVAMPSWFDIIGLSPDSQEDESGIKQAAENIKALIDQEVKNGIPSNRIILGGFSQGGALSLYTALTTQQKLAGVTALSCWLPLRASFPQGPIGGANRDISILQCHGDCDPLVPLMFGSLTVEKLKTLVNPANVTFKTYEGMMHSSCQQEMMDVKQFIDKLLPPID [LYPLA1],0.619,54.6,56.2,0.23,0.0704,-0.796
MAAPLELSCWGGGWGLPSVHSESLVVMAYAKFSGAPLKVNVIDNTWRGSRGDVPILTTEDDMVSQPAKILNFLRKQKYNADYELSAKQGADTLAYIALLEEKLLPAVLHTFWVESDNYFTVTKPWFASQIPFPLSLILPGRMSKGALNRILLTRGQPPLYHLREVEAQIYRDAKECLNLLSNRLGTSQFFFGDTPSTLDAYVFGFLAPLYKVRFPKVQLQEHLKQLSNLCRFCDDILSSYFRLSLGGISPAGQETVDANLQKLTQLVNKESNLIEKMDDNLRQSPQLPPRKLPTLKLTPAEEENNSFQRLSP [MTX3],0.0969,51.4,53,0.0458,-1.88,-1.18
MVGRNSAIAAGVCGALFIGYCIYFDRKRRSDPNFKNRLRERRKKQKLAKERAGLSKLPDLKDAEAVQKFFLEEIQLGEELLAQGEYEKGVDHLTNAIAVCGQPQQLLQVLQQTLPPPVFQMLLTKLPTISQRIVSAQSLAEDDVE [TOMM20],0.747,49.7,51.7,0.294,-2.96,-4.96
MGSGARFPSGTLRVRWLLLLGLVGPVLGAARPGFQQTSHLSSYEIITPWRLTRERREAPRPYSKQVSYVIQAEGKEHIIHLERNKDLLPEDFVVYTYNKEGTLITDHPNIQNHCHYRGYVEGVHNSSIALSDCFGLRGLLHLENASYGIEPLQNSSHFEHIIYRMDDVYKEPLKCGVSNKDIEKETAKDEEEEPPSMTQLLRRRRAVLPQTRYVELFIVVDKERYDMMGRNQTAVREEMILLANYLDSMYIMLNIRIVLVGLEIWTNGNLINIVGGAGDVLGNFVQWREKFLITRRRHDSAQLVLKKGFGGTAGMAFVGTVCSRSHAGGINVFGQITVETFASIVAHELGHNLGMNHDDGRDCSCGAKSCIMNSGASGSRNFSSCSAEDFEKLTLNKGGNCLLNIPKPDEAYSAPSCGNKLVDAGEECDCGTPKECELDPCCEGSTCKLKSFAECAYGDCCKDCRFLPGGTLCRGKTSECDVPEYCNGSSQFCQPDVFIQNGYPCQNNKAYCYNGMCQYYDAQCQVIFGSKAKAAPKDCFIEVNSKGDRFGNCGFSGNEYKKCATGNALCGKLQCENVQEIPVFGIVPAIIQTPSRGTKCWGVDFQLGSDVPDPGMVNEGTKCGAGKICRNFQCVDASVLNYDCDVQKKCHGHGVCNSNKNCHCENGWAPPNCETKGYGGSVDSGPTYNEMNTALRDGLLVFFFLIVPLIVCAIFIFIKRDQLWRSYFRKKRSQTYESDGKNQANPSRQPGSVPRHVSPVTPPREVPIYANRFAVPTYAAKQPQQFPSRPPPPQPKVSSQGNLIPARPAPAPPLYSSLT [ADAM9],-0.486,57.3,56.8,-0.00657,-2.54,-2.91
MRLRGCGPRAAPASSAGASDARLLAPPGRNPFVHELRLSALQKAQVALMTLTLFPVRLLVAAAMMLLAWPLALVASLGSAEKEPEQPPALWRKVVDFLLKAIMRTMWFAGGFHRVAVKGRQALPTEAAILTLAPHSSYFDAIPVTMTMSSIVMKAESRDIPIWGTLIQYIRPVFVSRSDQDSRRKTVEEIKRRAQSNGKWPQIMIFPEGTCTNRTCLITFKPGAFIPGAPVQPVVLRYPNKLDTITWTWQGPGALEILWLTLCQFHNQVEIEFLPVYSPSEEEKRNPALYASNVRRVMAEALGVSVTDYTFEDCQLALAEGQLRLPADTCLLEFARLVRGLGLKPEKLEKDLDRYSERARMKGGEKIGIAEFAASLEVPVSDLLEDMFSLFDESGSGEVDLRECVVALSVVCRPARTLDTIQLAFKMYGAQEDGSVGEGDLSCILKTALGVAELTVTDLFRAIDQEEKGKITFADFHRFAEMYPAFAEEYLYPDQTHFESCAETSPAPIPNGFCADFSPENSDAGRKPVRKKLD [LPCAT1],-0.209,52,52.6,-0.086,2.41,3.77
MLKSKTFLKKTRAGGVMKIVREHYLRDDIGCGAPGCAACGGAHEGPALEPQPQDPASSVCPQPHYLLPDTNVLLHQIDVLEDPAIRNVIVLQTVLQEVRNRSAPVYKRIRDVTNNQEKHFYTFTNEHHRETYVEQEQGENANDRNDRAIRVAAKWYNEHLKKMSADNQLQVIFITNDRRNKEKAIEEGIPAFTCEEYVKSLTANPELIDRLACLSEEGNEIESGKIIFSEHLPLSKLQQGIKSGTYLQGTFRASRENYLEATVWIHGDNEENKEIILQGLKHLNRAVHEDIVAVELLPKSQWVAPSSVVLHDEGQNEEDVEKEEETERMLKTAVSEKMLKPTGRVVGIIKRNWRPYCGMLSKSDIKESRRHLFTPADKRIPRIRIETRQASTLEGRRIIVAIDGWPRNSRYPNGHFVRNLGDVGEKETETEVLLLEHDVPHQPFSQAVLSFLPKMPWSITEKDMKNREDLRHLCICSVDPPGCTDIDDALHCRELENGNLEVGVHIADVSHFIRPGNALDQESARRGTTVYLCEKRIDMVPELLSSNLCSLKCDVDRLAFSCIWEMNHNAEILKTKFTKSVINSKASLTYAEAQLRIDSANMNDDITTSLRGLNKLAKILKKRRIEKGALTLSSPEVRFHMDSETHDPIDLQTKELRETNSMVEEFMLLANISVAKKIHEEFSEHALLRKHPAPPPSNYEILVKAARSRNLEIKTDTAKSLAESLDQAESPTFPYLNTLLRILATRCMMQAVYFCSGMDNDFHHYGLASPIYTHFTSPIRRYADVIVHRLLAVAIGADCTYPELTDKHKLADICKNLNFRHKMAQYAQRASVAFHTQLFFKSKGIVSEEAYILFVRKNAIVVLIPKYGLEGTVFFEEKDKPNPQLIYDDEIPSLKIEDTVFHVFDKVKVKIMLDSSNLQHQKIRMSLVEPQIPGISIPTDTSNMDLNGPKKKKMKLGK [DIS3],-0.0366,47.9,49.2,-0.0946,1.5,3.37
EIF2AK4,-0.218,50.8,50.3,-0.0694,0.686,0.568
MASIWVGHRGTVRDYPDFSPSVDAEAIQKAIRGIGTDEKMLISILTERSNAQRQLIVKEYQAAYGKELKDDLKGDLSGHFEHLMVALVTPPAVFDAKQLKKSMKGAGTNEDALIEILTTRTSRQMKDISQAYYTVYKKSLGDDISSETSGDFRKALLTLADGRRDESLKVDEHLAKQDAQILYKAGENRWGTDEDKFTEILCLRSFPQLKLTFDEYRNISQKDIVDSIKGELSGHFEDLLLAIVNCVRNTPAFLAERLHRALKGIGTDEFTLNRIMVSRSEIDLLDIRTEFKKHYGYSLYSAIKSDTSGDYEITLLKICGGDD [ANXA3],0.2,52.3,52.2,-0.0404,-0.635,-1.21

# From the supplement of paper PMC5998384
